From patent US20210095028A1 (NANJING LEGEND BIOTECH, published 2021)
Changes are numbered by the printed parent chain.

T1: human TIGIT over-expressed on cells (human, UniProt Q495A1 22-244)
T1 construct: also called CHO-K1/human TIGIT cells; CHO cells expressing human TIGIT
T1 sequence: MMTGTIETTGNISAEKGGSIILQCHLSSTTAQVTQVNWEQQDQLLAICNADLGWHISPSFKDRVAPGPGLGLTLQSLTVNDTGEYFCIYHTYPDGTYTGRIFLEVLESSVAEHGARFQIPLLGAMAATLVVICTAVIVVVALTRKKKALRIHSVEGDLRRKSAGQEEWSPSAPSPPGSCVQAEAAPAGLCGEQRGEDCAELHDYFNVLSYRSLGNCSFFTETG

T2: Human TIGIT protein with HIS tag (human, UniProt Q495A1 22-141)
T2 construct: A soluble analyte is probably only the extracellular part; also called human TIGIT recombinant protein; not shown: HIS tag
T2 sequence: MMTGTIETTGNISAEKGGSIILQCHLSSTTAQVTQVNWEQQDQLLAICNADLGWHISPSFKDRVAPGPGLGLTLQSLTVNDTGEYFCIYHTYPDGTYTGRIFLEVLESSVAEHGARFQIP

B1: 104G12E12G2 (antibody, V domains shown)
VH: EVQLQQSGPELVKPGASVKISCKASGYSFTGSYIHWVKQNHVKTLEWIGRINPHNGPTSYNQNFKGKASLTVDLSSSTAYMEVHSLTSEDSAVYYCVRYDGYYGGALDYWGQGTSVTVSS
VL: DIQMTQSPSSLSASLGERVSLTCRASQEISGYLSWLQQKPDGTIKRLIYAASTLDSGVPKRFSGSRSGSDYSLTISSLESEDFADYYCLQYASYPYTFGGGTKLEIK
notes: Mouse monoclonal antibody; also called mouse anti-human TIGIT monoclonal antibody 104G12E12G2
B2: 121C2F10B5 (antibody, V domains shown)
VH: EVQLVESGGDLVKPGGSLKLSCAASGFTFSTYGMSWVRQTPDKRLEWVATISSGGSYTYYPDSVKGRFTISRDNAKNTLYLQMSSLKSEDTAMYYCARQVHYFYAMDYWGQGTSVTVSS
VL: DIQMTQSPASLSVSVGETVTITCRASENIYSNLAWYQQKQGKSPQVLVYAATNLADGVPSRFSGSRSGTQYSLKINSLQSEDFGSYYCQHFWDNAYTFGGGTKLEIK
notes: Mouse monoclonal antibody; also called mouse anti-human TIGIT monoclonal antibody 121C2F10B5
B3: 64G1E9B4 (antibody, V domains shown)
VH: EVQLQQSGPELVKPGASVKISCKTSGYTFTEHVIHWVKQSHGKSLEWIGGFNPNHDGTIYNQIFRGKATLTVDKSSSTAYMELRSLTSEDSAVYFCTRAAKLLFAMDYWGQGTSVTVSS
VL: DIVMTQSHKFMSTSIGDRVSITCKASQHVSNAVVWYQQKPGQSPKLLIYSPSYRFTGVPDRFTGSGSGTDFTFTISSVQAEDLAVYYCQQHYSTPWTFGGGTKLEIK
notes: Mouse monoclonal antibody; also called mouse anti-human TIGIT monoclonal antibody 64G1E9B4
B4: 83G6H11C12 (antibody, V domains shown)
VH: EVMLVESGGGLVKPGGSLKLSCAASGFTFSFYTMSWVRQTPEKRLEWVATISSGGGSTYYSDSVKGRFTISRDNAKNNLYLQMTSLRSEDTALYYCSRSLPVDYWGQGTTLTVSS
VL: QIVLTQSPAIMSASLGERVTMTCTASSSVSSSYLHWYQQKPGSSPKLWIYSTSNLASGVPARFSGSGSGTSYSLTISSMEAEDAATYYCHLYHHSPYTFGGGTKLEIK
notes: Mouse monoclonal antibody; also called mouse anti-human TIGIT monoclonal antibody 83G6H11C12
B5: 92E9D4B4 (antibody, V domains shown)
VH: B4 VH with S53G, S57D, S61P, S63N, T84S, S97A, Y104F
VL: B4 VL with S32T, L47F, L55M, L91Y, H94R
notes: Mouse monoclonal antibody; also called mouse anti-human TIGIT monoclonal antibody 92E9D4B4

Legend:
[1] = target: T1, human TIGIT over-expressed on cells; test: FACS, CHO-K1 cells over-expressing human TIGIT
Experimental: (§1) The mixture was equilibrated for 30 minutes at room temperature and washed three times with FACS buffer (PBS containing 1% BSA). iFluor labeled goat anti-mouse IgG as the secondary antibody was added and incubated at room temperature for 45 min. Finally, the cells were washed 3 time with PBS, and the signal was read by FACS BD Calibur. Data was analyzed with PRISM™ (GraphPad Software, San Diego, Calif.) using non-linear regression and EC₅₀ values were calculated.

[2] = target: T1, human TIGIT over-expressed on cells; test: cell-based or functional assay
[3] = target: T1, human TIGIT over-expressed on cells; test: cell-based or functional assay; remark: listed apart in the source
[4] = target: T1, human TIGIT over-expressed on cells; test: competition FACS, CHO cells expressing human TIGIT; competitor PVR recombinant protein
Experimental: The mixture was equilibrated for 30 minutes at room temperature, and washed three times with FACS buffer (PBS containing 1% BSA). PE/Cy5 Streptavidin secondary antibody was then added to the mixtures and incubated for 15 minutes at room temperature. Subsequently, the cells were washed with FACS buffer and analyzed by flow cytometry. Data was analyzed with PRISM™ (GraphPad Software, San Diego, Calif.) using non-linear regression, and IC₅₀ values were calculated (FIGS. 4A-4B and Table 6).

[5] = target: T3, cynomolgus TIGIT over-expressed on CHO-K1 cells (cynomolgus, UniProt A0A7N9I9V4 89-312); test: FACS, CHO-K1 cells over-expressing cynomolgus TIGIT
T3 construct: whole, on cells; also called CHO-K1/cynomolgus TIGIT cells
T3 sequence (A0A7N9I9V4 entry or part of it): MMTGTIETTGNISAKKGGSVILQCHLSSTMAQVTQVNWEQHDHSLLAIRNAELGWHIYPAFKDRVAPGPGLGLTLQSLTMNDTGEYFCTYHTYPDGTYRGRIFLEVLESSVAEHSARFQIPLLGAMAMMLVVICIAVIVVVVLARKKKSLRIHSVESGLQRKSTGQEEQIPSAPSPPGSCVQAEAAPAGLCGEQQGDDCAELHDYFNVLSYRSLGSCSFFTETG
Experimental: as §1

[6] = target: T2, Human TIGIT protein with HIS tag; test: SPR Biacore T200; antibody Fc-captured, TIGIT-His analyte
Experimental: Binding kinetics of mouse anti-human TIGIT monoclonal antibodies to human TIGIT were determined using a Surface Plasmon Resonance (SPR) biosensor, BIACORE® T200 (GE Healthcare; Little Chalfont, United Kingdom). […] Each mouse anti-human TIGIT monoclonal antibody was immobilized on the sensor chip through the Fc capture method. Human TIGIT protein with HIS tag was used as the analyte. The dissociation (kd) and association (kₐ) rate constants were obtained using the BIACORE® T200 evaluation software. The apparent equilibrium dissociation constants (KD) were calculated from the ratio of kd over kₐ.

| Binder | Bottom (best-fit) [1] | EC50 [1] [nM] | Top (best-fit) [1] | IL-2 secretion in T cell activation, Bottom (best-fit) [2] | IL-2 secretion in T cell activation, EC50 [2] [nM] | IL-2 secretion in T cell activation, Top (best-fit) [2] | luciferase signal in T cell activation, Bottom (best-fit) [3] | luciferase signal in T cell activation, EC50 [3] [nM] | luciferase signal in T cell activation, Top (best-fit) [3] | Bottom (best-fit) [4] | IC50 [4] [nM] | Top (best-fit) [4] | Bottom (best-fit) [5] | EC50 [5] [nM] | Top (best-fit) [5] | Kd [6] [nM] | koff [6] [s⁻¹] | kon [6] [M⁻¹ s⁻¹] |
| --- | --- | --- | --- | --- | --- | --- | --- | --- | --- | --- | --- | --- | --- | --- | --- | --- | --- | --- |
| B1 | 15.5 | 0.73 | 96.9 | 108 | 3.31 | 189 | 6 | 6.42 | 147 | 8.9 | 2.4 | 56.9 | 7 | 11.1 | 80.6 | 2.3 | 0.00083 | 370000 |
| B2 | 14.2 | 0.36 | 92.7 | 96.2 | 1.02 | 197 | 5.4 | 4.38 | 153 | 11.8 | 0.6 | 68.8 | 7.6 | 10.2 | 120 | 0.72 | 0.00093 | 1.3e+06 |
| B3 | 15.3 | 0.61 | 113 | 111 | 0.82 | 283 | 5.7 | 1.64 | 124 | 9.5 | 1 | 67.1 | 15.3 | 1.58 | 455 | 0.23 | 0.00015 | 650000 |
| B4 | 9.57 | 0.68 | 115 | 104 | 0.83 | 171 | 9.6 | 4.4 | 145 | 12.9 | 0.7 | 70.2 | 16.1 | 1 | 326 | 0.7 | 0.00043 | 610000 |
| B5 | 7.99 | 0.8 | 97 | 106 | 3.36 | 274 | 3.4 | 3.9 | 141 | 10.3 | 2 | 65.5 | 17.7 | 1.16 | 348 | 0.57 | 0.00041 | 710000 |
